This test addresses His-tagged encapsulin from Thermotoga maritima (Thermotoga maritima). Description: co-purification.

Turning to “ESig-tagged mini-Singlet Oxygen Generator (miniSOG)”, the stoichiometry N (mSOG molecules per nanocompartment) came out at 7.

(Values after doi:10.1101/2020.06.06.138305.)
